Test results published in article PMC11235164.

Target: T1, trigger factor (Escherichia coli), P0A850
T1 chain: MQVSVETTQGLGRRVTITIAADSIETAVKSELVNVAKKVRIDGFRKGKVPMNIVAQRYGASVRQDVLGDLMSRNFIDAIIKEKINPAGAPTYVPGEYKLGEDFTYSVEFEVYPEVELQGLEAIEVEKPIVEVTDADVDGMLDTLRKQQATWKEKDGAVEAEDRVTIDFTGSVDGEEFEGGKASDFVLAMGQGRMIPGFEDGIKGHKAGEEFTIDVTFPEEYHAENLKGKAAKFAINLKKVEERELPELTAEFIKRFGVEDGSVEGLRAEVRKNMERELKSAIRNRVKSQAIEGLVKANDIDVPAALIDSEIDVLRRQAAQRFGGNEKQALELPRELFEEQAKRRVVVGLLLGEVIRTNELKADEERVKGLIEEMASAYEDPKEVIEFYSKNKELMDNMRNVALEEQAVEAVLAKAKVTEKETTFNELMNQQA
Assay: microfluidic diffusional sizing
Settings: remark: other sources report otherwise

B1: trigger factor, P0A850 (protein)
chain: MQVSVETTQGLGRRVTITIAADSIETAVKSELVNVAKKVRIDGFRKGKVPMNIVAQRYGASVRQDVLGDLMSRNFIDAIIKEKINPAGAPTYVPGEYKLGEDFTYSVEFEVYPEVELQGLEAIEVEKPIVEVTDADVDGMLDTLRKQQATWKEKDGAVEAEDRVTIDFTGSVDGEEFEGGKASDFVLAMGQGRMIPGFEDGIKGHKAGEEFTIDVTFPEEYHAENLKGKAAKFAINLKKVEERELPELTAEFIKRFGVEDGSVEGLRAEVRKNMERELKSAIRNRVKSQAIEGLVKANDIDVPAALIDSEIDVLRRQAAQRFGGNEKQALELPRELFEEQAKRRVVVGLLLGEVIRTNELKADEERVKGLIEEMASAYEDPKEVIEFYSKNKELMDNMRNVALEEQAVEAVLAKAKVTEKETTFNELMNQQA
Kd: 1500 nM
